T1: truncated human IL-33 (IL-33aa112-270)
T1 chain: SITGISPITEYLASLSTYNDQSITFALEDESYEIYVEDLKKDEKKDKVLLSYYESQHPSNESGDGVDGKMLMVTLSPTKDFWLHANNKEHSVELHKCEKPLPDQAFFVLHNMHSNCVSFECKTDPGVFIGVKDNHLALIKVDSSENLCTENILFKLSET

T2: whole human interleukin 33 (IL-33aa1-270)
T2 chain: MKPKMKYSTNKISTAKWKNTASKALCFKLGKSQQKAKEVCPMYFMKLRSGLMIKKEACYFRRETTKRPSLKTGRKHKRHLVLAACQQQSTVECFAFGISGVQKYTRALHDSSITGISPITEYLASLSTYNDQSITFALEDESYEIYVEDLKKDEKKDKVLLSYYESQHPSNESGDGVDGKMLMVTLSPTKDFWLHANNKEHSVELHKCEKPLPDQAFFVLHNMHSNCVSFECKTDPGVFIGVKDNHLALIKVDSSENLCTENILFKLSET


How the values were obtained:
[1] = biological target: ST2 receptor on murine MC/9 mast cells (murine (MC/9 mast cell line)) (UniProt P14719); test: cell-based or functional assay
UniProt P14719, sequence (P14719 27-567): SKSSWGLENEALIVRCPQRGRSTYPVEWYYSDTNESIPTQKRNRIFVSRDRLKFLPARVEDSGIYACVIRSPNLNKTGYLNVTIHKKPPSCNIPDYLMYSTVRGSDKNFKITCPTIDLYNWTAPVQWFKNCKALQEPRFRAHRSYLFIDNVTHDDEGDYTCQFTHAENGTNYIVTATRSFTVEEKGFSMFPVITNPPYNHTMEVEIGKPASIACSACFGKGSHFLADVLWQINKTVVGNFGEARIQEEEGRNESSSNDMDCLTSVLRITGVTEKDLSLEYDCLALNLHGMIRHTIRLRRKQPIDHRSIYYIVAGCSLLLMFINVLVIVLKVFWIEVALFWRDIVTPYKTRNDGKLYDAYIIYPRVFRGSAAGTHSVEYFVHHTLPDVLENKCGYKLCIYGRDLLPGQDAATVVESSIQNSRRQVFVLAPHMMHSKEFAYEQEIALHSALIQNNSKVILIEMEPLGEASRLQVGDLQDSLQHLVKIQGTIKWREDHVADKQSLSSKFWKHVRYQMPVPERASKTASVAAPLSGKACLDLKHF

[2] = biological target: T1, truncated human IL-33 (IL-33aa112-270)
[3] = biological target: T2, whole human interleukin 33 …

Molecule	secretion of IL-6 by MC/9 mast cells (ELISA), relative to whole IL-33 (fold vs whole IL-33) [1]	cleavage in vitro, western blot [2]	cleavage in vitro, SDS-PAGE and western blot [3]
IL-33aa109-270 (from UniProt O95760 109-270) (ligand)	4		
leukocyte proteinase 3 (protein) IVGGHEAQPHSRPYMASLQMRGNPGSHFCGGTLIHPSFVLTAAHCLRDIPQRLVNVVLGAHNVRTQEPTQQHFSVAQVFLNNYDAENKLNDVLLIQLSSPANLSASVATVQLPQQDQPVPHGTQCLAMGWGRVGAHDPPAQVLQELNVTVVTFFCRPHNICTFVPRRKAGICFGDSGGPLICDGIIQGIDSFVIWGCATRLFPDFFTRVALYVDWIRSTLR		the truncated form IL-33aa112-270, which remains intact in the presence of these proteases	Human IL-33 is the target of the recombinant proteases Cathepsin G (Cat G), Elastase 2 (Elastase), and Proteinase 3 (PR3), which generate, in vitro, the three mature fragments IL-33aa95-270, IL-33aa99-270 and IL-33aa109-270
neutrophil elastase 2 (protein) IVGGRRARPHAWPFMVSLQLRGGHFCGATLIAPNFVMSAAHCVANVNVRAVRVVLGAHNLSRREPTRQVFAVQRIFENGYDPVNLLNDIVILQLNGSATINANVQVAQLPAQGRRLGNGVQCLAMGWGLLGRNRGIASVLQELNVTVVTSLCRRSNVCTLVRGRQAGVCFGDSGSPLVCNGLIHGIASFVRGGCASGLYPDAFAPVAQFVNWIDSIIQ		the truncated form IL-33aa112-270, which remains intact in the presence of these proteases	Human IL-33 is the target of the recombinant proteases Cathepsin G (Cat G), Elastase 2 (Elastase), and Proteinase 3 (PR3), which generate, in vitro, the three mature fragments IL-33aa95-270, IL-33aa99-270 and IL-33aa109-270
human cathepsin G (protein) IIGGRESRPHSRPYMAYLQIQSPAGQSRCGGFLVREDFVLTAAHCWGSNINVTLGAHNIQRRENTQQHITARRAIRHPQYNQRTIQNDIMLLQLSRRVRRNRNVNPVALPRAQEGLRPGTLCTVAGWGRVSMRRGTDTLREVQLRVQRDRQCLRIFGSYDPRRQICVGDRRERKAAFKGDSGGPLLCNNVAHGIVSYGKSSGVPPEVFTRVSSFLPWIRTTMRS		the truncated form IL-33aa112-270, which remains intact in the presence of these proteases	Human IL-33 is the target of the recombinant proteases Cathepsin G (Cat G), Elastase 2 (Elastase), and Proteinase 3 (PR3), which generate, in vitro, the three mature fragments IL-33aa95-270, IL-33aa99-270 and IL-33aa109-270

More lines, main results first:

secretion of IL-6 by MC/9 mast cells (ELISA), relative to whole IL-33 (fold vs whole IL-33) [1]	Molecule	cleavage in vitro, western blot [2]	cleavage in vitro, SDS-PAGE and western blot [3]
4	IL-33aa95-270 (from UniProt O95760 95-270) (ligand)		
4	IL-33aa99-270 (from UniProt O95760 99-270) (ligand)		
